Source: patent publication US20100233714
Like-named read-outs stand apart in the source and are kept apart here.

Tests used:
[1] = tested on: IgG4, monoclonal human (Homo sapiens); details: ultrafiltration, Picogreen, 37.5 mM NaCl, 3.75 mM Na citrate, pH 6.0
[2] = tested on: IgA, monoclonal human (Homo sapiens); assay: filter; details: pH 6, 41 mM Na+
[3] = tested on: IgG Fab2 fragment (human) (Homo sapiens); assay: filter; details: pH 6, 41 mM Na+
[4] = tested on: IgG Fab2 fragment (mouse) (Mus musculus); assay: filter; details: pH 6, 41 mM Na+
[5] = tested on: IgG Fc fragment (human) (Homo sapiens), P01857-1; assay: filter; details: pH 6, 41 mM Na+
[6] = tested on: IgG, polyclonal mixed human (Homo sapiens); assay: filter; details: pH 6, 41 mM Na+
[7] = tested on: IgG, polyclonal mouse (Mus musculus); assay: filter; details: pH 6, 41 mM Na+
[8] = tested on: IgG1, monoclonal human (Homo sapiens); assay: filter; details: pH 6, 41 mM Na+
[9] = tested on: IgG2, monoclonal human (Homo sapiens); assay: filter; details: pH 6, 41 mM Na+
[10] = tested on: IgG3, monoclonal human (Homo sapiens); assay: filter; details: pH 6, 41 mM Na+
[11] = tested on: IgM, monoclonal human (Homo sapiens); assay: filter; details: pH 6, 41 mM Na+
[12] = tested on: IgG3, monoclonal human (Homo sapiens); details: ultrafiltration, Picogreen; 37.5 mM NaCl, 3.75 mM Na citrate, pH 6.0
[13] = hexaethylene glycol (HEG, iSp18) linkers as loops

Row | Sequence | Ka [1] | Ka [2] | Ka [3] | Ka [4] | Ka [5] | Ka [7] | Ka [8] | Ka [9] | Ka [10] | Ka [11] | also measured
1 | CCCTCCCTGGGCTTTTTTTGATTTTTCTTAA [RAD4] | 7.13 log10 M-1 | 7.66 log10 M-1 | 6.89 log10 M-1 | 7.09 log10 M-1 | 5.26 log10 M-1 | 7.71 log10 M-1 | 7.52 log10 M-1 | 7.67 log10 M-1 | 6.66 log10 M-1 | 6.89 log10 M-1 | Ka ([6]; pH5 8.48, pH7 7.10, pH8 7.02, Table 2 pH 6 6.89): 8.13 log10 M-1
2 | CCTCTTCCTTCTCCGGAGAAG [RAD1] |  |  |  |  |  |  |  |  |  |  | Ka ([1]; hexaethylene glycol (iSp18) linkers between the three segments): 6.37 log10 M-1
3 | CCTCTTCHEGCTTCTCCHEGGGAGAAG [RAD1] |  |  |  |  |  |  |  |  |  |  | Ka [2, 13]: 6.37 log10 M-1; Ka [3, 13]: 5.82 log10 M-1; Ka [4, 13]: 6.38 log10 M-1; Ka [5, 13]: 5.8 log10 M-1; Ka ([6]; hexaethylene glycol (HEG, iSp18) linkers as loops, ultrafiltration, pH5 7.45, pH7 6.49, pH8 6.30, Table 2 (0.15 M NaCl, 1 mM MgCl2, pH 6) 7.01): 6.51 log10 M-1; Ka [7, 13]: 6.6 log10 M-1; Ka [8, 13]: 6.38 log10 M-1; Ka [9, 13]: 6.51 log10 M-1; Ka [10, 13]: 6.17 log10 M-1; Ka [11, 13]: 6.32 log10 M-1
4 | CCTCTTCTTTTTCTTCTC [RAD20] | 7.67 log10 M-1 | 7.53 log10 M-1 | 6.9 log10 M-1 | 7.41 log10 M-1 | 5.96 log10 M-1 | 8.3 log10 M-1 | 7.34 log10 M-1 | 7.85 log10 M-1 | 6.84 log10 M-1 | 7.02 log10 M-1 | Ka ([6]; pH5 8.11, pH7 7.40, pH8 6.64): 7.98 log10 M-1
5 | CCTCTTCTTTTTCTTCTCCTTTTTGGAGAAG [RAD2 (triplex 31mer)] | 7.08 log10 M-1 | 6.9 log10 M-1 | 6.45 log10 M-1 | 6.71 log10 M-1 | 5.86 log10 M-1 | 7.49 log10 M-1 | 7.04 log10 M-1 | 7.06 log10 M-1 | 6.64 log10 M-1 | 6.73 log10 M-1 | Ka ([6]; pH5 8.74, pH7 6.96, pH8 6.57, Table 2 pH 6 6.96): 7.61 log10 M-1
6 | CCTTCCTTTGGAAGGTTG [RAD23] | 5.97 log10 M-1 | 6.38 log10 M-1 | 5.64 log10 M-1 | 6.33 log10 M-1 |  | 6.77 log10 M-1 | 6.14 log10 M-1 | 6.86 log10 M-1 | 5.62 log10 M-1 | 6.08 log10 M-1 | Ka ([6]; pH5 7.37, pH7 6.31, pH8 6.21): 6.88 log10 M-1
7 | CGCGAAAACGCG [RAD22] |  |  |  |  |  |  |  |  |  |  | Ka ([6]; pH5 5.95, pH7 6.04, pH8 5.97): 6.25 log10 M-1
8 | CTCTCTCTTTTTCTCTCTCTTTTTGAGAGAG [RAD9] | 7.06 log10 M-1 | 6.95 log10 M-1 | 6.44 log10 M-1 | 6.75 log10 M-1 | 5.87 log10 M-1 | 7.46 log10 M-1 | 7.05 log10 M-1 | 7.05 log10 M-1 |  | 6.79 log10 M-1 | Ka [12]: 6.62 log10 M-1; Ka ([6]; pH5 8.67, pH7 7.04, pH8 6.94, Table 2 pH 6 7.02): 7.74 log10 M-1
9 | GAGAGAGTTTTTGAGAGAGTTTTTCTCTCTC [RAD7] | 7.16 log10 M-1 | 7.33 log10 M-1 | 6.68 log10 M-1 | 6.97 log10 M-1 | 5.99 log10 M-1 | 7.69 log10 M-1 | 7.3 log10 M-1 | 7.25 log10 M-1 | 6.74 log10 M-1 | 6.89 log10 M-1 | Ka ([6]; pH5 8.51, pH7 6.97, pH8 6.79, Table 2 pH 6 6.86): 8.04 log10 M-1
10 | GAGTGAGTCTCAGTTAGTTTCGATTGATTCT [RAD5] |  |  |  |  |  |  |  |  |  |  | Ka ([6]; pH5 8.75, pH7 7.11, pH8 6.81, Table 2 pH 6 6.82): 8.03 log10 M-1
11 | GGAAAGGTTTTTGGAAAGGTTTTTCCTTTCC [RAD6] |  |  |  |  |  |  |  |  |  |  | Ka ([6]; pH5 8.50, pH7 6.86, pH8 6.74, Table 2 pH 6 6.84): 7.96 log10 M-1
12 | GGTTGGTTTGGTTGG [RAD13] |  |  |  |  |  |  |  |  |  |  | Ka ([6]; pH5 7.55, pH7 6.46, pH8 6.53): 6.96 log10 M-1
13 | TGGAGTCTGCGCGAGTCAGCGCTCAAGATC [RAD8] |  |  |  |  |  |  |  |  |  |  | Ka ([6]; pH5 8.41, pH7 6.86, pH8 6.84, Table 2 pH 6 6.13): 7.85 log10 M-1
14 | TGGGCCGGTAACGGATTACCGTAAGGTCCC [RAD11] |  |  |  |  |  |  |  |  |  |  | Ka ([6]; pH5 8.31, pH7 6.85, pH8 6.85, Table 2 pH 6 6.51): 7.64 log10 M-1
15 | TGGGCCGGTAACGGGTTACCGTAAGGTCCC [RAD10] | 7 log10 M-1 | 6.92 log10 M-1 | 6.43 log10 M-1 | 6.76 log10 M-1 | 5.92 log10 M-1 | 7.53 log10 M-1 | 7.04 log10 M-1 | 7.01 log10 M-1 |  | 6.7 log10 M-1 | Ka [12]: 6.62 log10 M-1; Ka ([6]; pH5 8.41, pH7 6.81, pH8 6.72, Table 2 pH 6 6.31): 7.65 log10 M-1
16 | TGGTTGGTTTTTGGAAGGATTTTTTCCTTCC [RAD3] | 7.2 log10 M-1 | 7.38 log10 M-1 | 6.97 log10 M-1 | 7.09 log10 M-1 | 6.34 log10 M-1 | 7.69 log10 M-1 | 7.45 log10 M-1 | 7.36 log10 M-1 | 6.69 log10 M-1 | 6.71 log10 M-1 | Ka ([6]; pH5 8.60, pH7 6.86, pH8 6.76, Table 2 pH 6 6.71): 7.79 log10 M-1
17 | TTTGGTTGGTTTGGTTGG [RAD19] |  |  |  |  |  |  |  |  |  |  | Ka ([6]; inosine (I) at printed positions [inosine (written G): 4,14], pH5 7.82, pH7 6.50, pH8 6.04): 7.14 log10 M-1
18 | TTTTCGCGCGTACGCGCGCGAA [RAD15] | 6.13 log10 M-1 | 6.23 log10 M-1 | 5.33 log10 M-1 | 6.21 log10 M-1 |  | 6.35 log10 M-1 | 6.39 log10 M-1 | 6.18 log10 M-1 |  | 6.19 log10 M-1 | Ka [12]: 6.22 log10 M-1; Ka ([6]; pH5 7.65, pH7 6.33, pH8 6.19): 7 log10 M-1
19 | TTTTCGCGCGTTAACGCGCGAA [RAD16] | 6.54 log10 M-1 | 6.46 log10 M-1 | 6.23 log10 M-1 | 6.11 log10 M-1 |  | 7.07 log10 M-1 | 6.87 log10 M-1 | 6.11 log10 M-1 |  | 6.26 log10 M-1 | Ka [12]: 6.31 log10 M-1; Ka ([6]; pH5 8.22, pH7 7.25, pH8 6.79): 7.8 log10 M-1
20 | TTTTCGCGTGTGTGCGCGAA [RAD12] |  |  |  |  |  |  |  |  |  |  | Ka ([6]; pH5 7.61, pH7 6.37, pH8 5.74): 6.98 log10 M-1
